We go through two molecules from US7977082B2, “Isomaltulose synthases, polynucleotides encoding them and uses therefor” (The University of Queensland of St. Lucia, priority 2001, dated 2011).

In data set [1] the target is T1, Pantoea dispersa 68J sucrose isomerase (SI), mature, SEQ ID NO: 10, carboxy-terminal 6×His tag (SEQ ID NO: 52) (Pantoea dispersa, UniProt Q6XNK6).
T1 sequence (Q6XNK6 34-598): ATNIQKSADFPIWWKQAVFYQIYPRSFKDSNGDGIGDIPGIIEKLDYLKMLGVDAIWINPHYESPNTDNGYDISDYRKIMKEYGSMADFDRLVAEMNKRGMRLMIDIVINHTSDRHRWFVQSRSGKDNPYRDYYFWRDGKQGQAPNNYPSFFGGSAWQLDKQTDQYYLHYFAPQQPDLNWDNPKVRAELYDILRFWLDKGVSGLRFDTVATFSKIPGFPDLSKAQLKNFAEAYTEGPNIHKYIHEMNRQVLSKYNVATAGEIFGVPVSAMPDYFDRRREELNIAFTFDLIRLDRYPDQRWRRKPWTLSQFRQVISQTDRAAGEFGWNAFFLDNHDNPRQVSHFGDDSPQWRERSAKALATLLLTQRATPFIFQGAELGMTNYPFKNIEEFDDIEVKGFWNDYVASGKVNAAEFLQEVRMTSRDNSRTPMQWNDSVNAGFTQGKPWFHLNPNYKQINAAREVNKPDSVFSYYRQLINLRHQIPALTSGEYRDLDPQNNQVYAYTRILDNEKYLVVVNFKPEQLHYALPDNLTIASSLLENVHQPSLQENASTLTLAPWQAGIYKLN
Put plainly: Sucrose isomerase kinetics, purified SI from P. dispersa 68J (isomaltulose production), with or without glucose/fructose. Type of data set: biochemical. The following applies: sucrose, isomaltulose production. How it is done:
(§1) The pET24b vector introduces a carboxy-terminal 6×His tag (SEQ ID NO: 52) on expressed proteins, which were purified by adsorption to Ni-NTA agarose (Qiagen) and elution with 25 mM NaH2PO4, 150 mM NaCl, 125 mM imidazole buffer (pH8.0) following the manufacturer's instructions. For storage, the eluted solution was diluted with 50% glycerol. The purity of SI proteins was tested by SDS-PAGE as described below. A batch procedure using Ni-NTA agarose in suspension yielded predominantly (80-95%) SI with a background of several other protein bands. A procedure using Ni-NTA agarose in adsorption columns yielded preparations containing a single protein band. Unless otherwise specified, this is the form of the purified SI enzymes used for biochemical characterisation.
(§2) Enzyme activities were measured by incubating 5 μl of purified enzyme with 95 μL of sucrose solution at a final concentration of 584 mM in 0.1 M citrate/phosphate buffer (pH 6.0) at 30° C. Sugar profiles in the reaction mix were analysed at intervals by CE as described previously. One unit (U) of SI activity was defined as the amount of enzyme that could release 1 μmol of isomaltulose in one minute at the initial stage of the reaction.
(§3) SI activity was measured by incubating the purified enzyme with different sucrose concentrations (3, 6, 15, 58, 146, 292, 584, 877, 1169 and 1461 mM) under standard assay conditions, and also with addition of glucose, fructose or both to a final concentration of 277 mM. Data were analyzed according to the method of Lineweaver and Burk (Voet and Voet, 1995) to calculate Km and Vmax values.

Data set [2] has as its target T2, Klebsiella sp. 14S sucrose isomerase (SI), carboxy-terminal 6×His tag (SEQ ID NO: 52) (Klebsiella planticola, UniProt Q6XKX6).
T2 sequence (Q6XKX6 29-598): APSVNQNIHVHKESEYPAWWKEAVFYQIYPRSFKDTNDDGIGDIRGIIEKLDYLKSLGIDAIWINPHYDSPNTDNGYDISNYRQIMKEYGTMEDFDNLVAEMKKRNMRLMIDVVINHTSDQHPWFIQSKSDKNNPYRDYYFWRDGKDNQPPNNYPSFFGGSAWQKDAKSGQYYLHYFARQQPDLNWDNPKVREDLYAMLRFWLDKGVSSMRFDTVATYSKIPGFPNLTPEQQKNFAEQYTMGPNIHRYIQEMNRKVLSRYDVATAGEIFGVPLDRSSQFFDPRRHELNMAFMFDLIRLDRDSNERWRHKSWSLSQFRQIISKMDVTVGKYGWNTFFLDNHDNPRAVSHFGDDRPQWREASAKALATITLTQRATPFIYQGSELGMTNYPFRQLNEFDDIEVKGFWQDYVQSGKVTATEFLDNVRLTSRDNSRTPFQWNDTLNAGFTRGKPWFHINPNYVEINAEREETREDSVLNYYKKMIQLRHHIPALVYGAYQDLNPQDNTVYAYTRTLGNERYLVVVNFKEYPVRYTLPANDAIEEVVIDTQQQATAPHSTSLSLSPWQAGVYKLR
Put plainly: Sucrose isomerase kinetics, purified SI from Klebsiella sp. 14S (isomaltulose production), with or without glucose/fructose. The following applies: sucrose, isomaltulose production, pH 6.0, 30° C., Lineweaver and Burk. Format: biochemical. As to the method:
as §1, with “Unless otherwise specified, this is the form of the purified SI enzymes used for biochemical characterisation.” left out
Enzyme activities were measured by incubating 5 μl of purified enzyme with 95 μL of sucrose solution at a final concentration of 584 mM in 0.1 M citrate/phosphate buffer (pH 6.0) at 30° C. Sugar profiles in the reaction mix were analysed at intervals by CE as described previously. […]
as §3

Data set [3] concerns Klebsiella sp. LX3 sucrose isomerase. The following applies: isomaltulose product; Zhang et al. 2002; cited from earlier work.
Data set [4] concerns Klebsiella sp. sucrose isomerase. The following applies: isomaltulose product; Park et al. 1996; cited from earlier work.
Data set [5] concerns Serratia plymuthica ATCC 15928 sucrose isomerase. The following applies: isomaltulose product; Véronèse & Perlot 1999; cited from earlier work.
In data set [6] the test system is Pseudomonas mesoacidophila MX-45 sucrose isomerase. The following applies: trehalulose product; Nagai et al. 1994; cited from earlier work.
A short description of data set [7]: Conversion of sucrose into isomaltulose by E. coli cells expressing cloned SI genes. Format: cell-based. How it is done: The three sucrose isomerase genes in the pCR®2.1 vector were cut and cloned into pGEM®-3Zf(+) then into pET 24b vector (Novagen) for expression in E. coli BL21(DE3) strain. Five mL LB medium with 50 μg/mL kanamycin was used for the BL21(DE3) cell culture. Fifteen cultures per construct were set up initially. Cells were grown at 37° C. at 225 rpm shaking. Six to ten cultures per construct, with OD600 1.000±0.005, were selected for further induction. After 0.5 mL was sampled from each culture, IPTG was added to the culture to a final concentration of 1.0 mM. Incubation of the cultures was continued for another 3 hours. The induced cultures only with OD600 1.750±0.005 were further selected for sucrose conversion analysis and protein measurement, allowing analysis of three replicate cultures per construct. From each of the selected IPTG-induced cultures, 1.5 mL was sampled for protein quantification, 0.5 mL for protein SDS-PAGE, 1.0 mL for quantification of conversion efficiency from sucrose into isomaltulose.
The 1.0 mL culture was centrifuged, then resuspended in citrate/phosphate (pH 6.0) buffered 50% sucrose solution and assayed for isomaltulose conversion by CE analysis as described above. Conversion ratio was calculated by sucrose peak area and isomaltulose peak area normalised against standards of known concentration, using the software of Beckman P/ACE 5000 Series C.E. System.
Fifteen cultures per construct were set up in 5 mL LB medium (Sambrook and Russell, 2001) with 50 μg/mL kanamycin in a 30 mL universal tube. Cells were grown at 37° C. at 225 rpm shaking. Six to ten cultures per construct, with OD600=1.00 were selected for further induction. After 0.5 mL was sampled from each culture, IPTG was added to a final concentration of 0.5 mM and incubation of the cultures was continued for another 3 h at 28° C. This allowed selection of three replicate cultures per construct with the same OD600 for sucrose conversion analysis and protein measurement. From each of the selected cultures, 1.5 mL was sampled for protein quantification, 0.5 mL for protein SDS-PAGE, and 1.0 mL for quantification of conversion efficiency from sucrose into isomaltulose. For SI protein purification experiment, the culture volume was scaled up to 25 mL in a 250 mL flask.
The 1.0 mL culture sample was centrifuged at 12,000×g for 1 min, then resuspended in 5 mL of 0.1 M citrate/phosphate (pH 6.0) buffered 50% sucrose solution and incubated for 4 h at 37° C. with 225 rpm shaking. Conversion ratio was calculated from sucrose and isomaltulose peak areas normalised against standards of known concentration, using a Beckman P/ACE 5000 CE as described previously herein.

A short description of data set [8]: Assay of isolated (purified) SI enzyme activity. Format: biochemical. As to the method:
as §1, §2
The enzymes were incubated with sucrose at different pH ranging from 2.0 to 10.6. The solution of pH 2.0 was buffered in 0.2 M KCl; pH 3.0 to pH 9.0 were in 0.1 M citrate/phosphate buffer; pH 10.0 to pH 10.6 were in 0.2 M glycine buffer. The effect of temperature from 10° C. to 70° C. was measured at pH 6.0. […]

A short description of data set [9]: Storage stability of purified SI proteins. Type of data set: physicochemical. As to the method:
The purified fresh enzymes from SDS-PAGE had specific activities for isomaltulose production of: E. rhapontici: 35 U mg^−1 protein, Klebsiella sp.: 95 U mg^−1 protein and P. dispersa: 632 U mg^−1 protein. The purified SI from E. rhapontici lost function during overnight storage at −20° C. in elution buffer diluted with 50% glycerol. In contrast, the purified enzymes from 14S or P. dispersa retained 100% of the fresh enzyme efficiency for isomaltulose production after 6-month storage at −20° C., or 60% after 15-day storage at room temperature in the same buffer. Because of instability, the E. rhapontici SI was not characterised further in purified form. Cheetham et al., (1984) found substantial differences between E. rhapontici strains for SI stability in immobilized cells, and the enzyme from strain NCPPB 1578 was stable in purified form (Cheetham, 1984).
as §1

Data set [10] in a line: Isomaltulase activity of the purified enzyme. Format: biochemical. The following applies: 50 mM isomaltulose, 30° C., 30 minutes, pH 3.0 to 7.0. How it is done: (§4) Isomaltulase activity of the purified enzyme was investigated by incubation with 50 mM isomaltulose at 30° C. for 30 minutes at each of pH 3.0, 4.0, 5.0, 6.0 and 7.0. Glucose and fructose were tested as substrates under the same reaction conditions.

The nature of data set [11]: Glucose and fructose tested as substrates of the purified enzyme. Format: biochemical. The following applies: 30° C., 30 minutes, pH 3.0 to 7.0. As to the method: as §4
Where [12] appears, read: E. coli, pET 24b, same expression conditions.

Consider `OC[C@H]1O[C@@](CO)(O[C@H]2O[C@H](CO)[C@@H](O)[C@H](O)[C@H]2O)[C@@H](O)[C@@H]1O` [sucrose, α-D-glucosyl-1,2-D-fructose], for which the Vmax in data set [1] is listed as 637 μmoles isomaltulose/mg protein/min; in data set [1] (pH 6.0, 30° C., Lineweaver and Burk), 637 U mg^−1; in data set [2], 100 U mg^−1; in data set [4], 110 U mg^−1; in data set [5], 120 U mg^−1. In addition, the Km (commonly the substrate concentration at which the rate is half of its maximum) in data set [3] was 54.6 mM; in data set [5], 65 mM; in data set [6] it was 19.2 mM.

B1: P. dispersa SI: sucrose isomerase cloned from bacterial isolate 68J, SEQ ID NO: 8, mature polypeptide SEQ ID NO: 10 (protein)
chain: MFLNGFKTVIALTMASSFYLAASPLTKPSTPIAATNIQKSADFPIWWKQAVFYQIYPRSFKDSNGDGIGDIPGIIEKLDYLKMLGVDAIWINPHYESPNTDNGYDISDYRKIMKEYGSMADFDRLVAEMNKRGMRLMIDIVINHTSDRHRWFVQSRSGKDNPYRDYYFWRDGKQGQAPNNYPSFFGGSAWQLDKQTDQYYLHYFAPQQPDLNWDNPKVRAELYDILRFWLDKGVSGLRFDTVATFSKIPGFPDLSKAQLKNFAEAYTEGPNIHKYIHEMNRQVLSKYNVATAGEIFGVPVSAMPDYFDRRREELNIAFTFDLIRLDRYPDQRWRRKPWTLSQFRQVISQTDRAAGEFGWNAFFLDNHDNPRQVSHFGDDSPQWRERSAKALATLLLTQRATPFIFQGAELGMTNYPFKNIEEFDDIEVKGFWNDYVASGKVNAAEFLQEVRMTSRDNSRTPMQWNDSVNAGFTQGKPWFHLNPNYKQINAARXVNKPDSVFSYYRQLINLRHQIPALTSGEYRDLDPQNNQVYAYTRILDNEKYLVVVNFKPEQLHYALPDNLTIASSLLENVHQPSLQENASTLTLAPWQAGIYKLN
modifications: not fully specified; X: residue not identified in the source
With B1, in data set [7] (setting [12]), the “conversion efficiency from sucrose to isomaltulose, times that of the 14S (Klebsiella sp.) gene product/clone” value is 18 times and the “conversion efficiency from sucrose to isomaltulose, times that of the Erwinia rhapontici gene product/clone” value amounted to 10 times. In addition, in data set [7] (compared with 14S (Klebsiella sp.) and Erwinia rhapontici SIs), the “proportions of glucose and fructose generated” value is “smaller proportions of glucose and fructose”. The “efficiency of the soluble enzyme, times that of the Erwinia and Klebsiella enzymes” value in data set [7] (intact cell assay, estimated) is 6-38 times. In addition, the “monosaccharides, share of the products” value in [8] (from pH 4 to 8) is recorded as “less than 20%”. Also, in data set [8] (purified SI), the “activity at 10° C., of activity at optimal temperature” value worked out at 15%; the “activity at 60° C.” value is reported as “still active”; the “isomaltulose production at pH 3 and pH 8” value is listed as “some isomaltulose was still produced”; the “optimal pH for isomaltulose production” value was found to be 5. The “time until all sucrose was converted” value in data set [8] (purified SI) was not above 45 min. The “sucrose converted to isomaltulose (of consumed sucrose)” value in data set [8] (purified SI, complete conversion, remainder glucose and fructose) stood at 91%. In addition, the “optimal temperature for isomaltulose production” value in [8] (purified SI, pH 6.0) was found to be 37 °C. For the same molecule, in data set [8] (purified fresh His-tagged enzymes), the “specific activity for isomaltulose production” value is recorded as 632 U mg^−1 protein. In addition, the “fresh enzyme efficiency for isomaltulose production retained” value in [9] (6-month storage at −20° C., elution buffer with 50% glycerol) stood at 100%. The “fresh enzyme efficiency for isomaltulose production retained” value in data set [9] (15-day storage at room temperature, same buffer) was 60%. Moreover, the hydrolysis of isomaltulose result in data set [10] is on record as “did not hydrolyse isomaltulose”. Besides, the “product from glucose and fructose as substrates” value in data set [11] is “no product was detected”.
